# Data from US20240317847A1 (Bayer, published 2024).
# Substitutions are numbered along the chain they refer to. Numbers in names are those of the source. Where “and” joins values, the source holds several entries; their conditions need not be identical. Equal entries are not always repeated.
# B1: TPP-29391 (antibody, human IgG1, V domains shown)
# VH: EVQLLESGGGLVQPGGSLRLSCAASGFTFSSYGMHWVRQAPGKGLEWVAVISYDGSYKYYADSVKGRFTISRDNSKNTLYLQMNSLRAEDTAVYYCAAGVPDYWGQGTLVTVSS
# VL: QSVLTQPPSASGTPGQRVTISCSGSSSNIGSDYDVHWYQQLPGTAPKLLIYSNNERPSGVPDRFSGSKSGTSASLAISGLRSEDEADYYCAAWDSSLYGPVFGGGTKLTVL
# B2: TPP-31312 (antibody, IgG4, V domains shown)
# VH: EVQLLESGGGLVQPGGSLRLSCAASGFTFSHYDMNWLRQAPGKGLEWVGVISYDGSNKFYADFVKGRFTISRDNSKNTLYLQMNSLRAEDTAVYYCARTPGSHFDYWGQGTLVTVSS
# VL: QSVLTQPPSASGTPGQRVTISCSGSSSNIGNNAVNWYQQLPGTAPKLLIYYDDLLPSGVPDRFSGSKSGTSASLAISGLRSEDEADYYCSAWDDSLNGVVFGGGTKLTVL
# notes: also called WT antibody; chimeric antibody
# B3: TPP-31325 (antibody, human IgG4 S228P, lambda, V domains shown)
# VH: B2 VH with E1Q, L5V, L11V, G16R, N35H, L37V, G49A, D54E, F63S
# VL: QSVLTQPPSASGTPGQRVTISCSGSSSNIGSNYVNWYQQLPGTAPKLLIYYDDLRPSGVPDRFSGSKSGTSASLAISGLRSEDEADYYCSAWDDSLSGVVFGGGTKLTVLG
# notes: hIgG4-SPLE, Lambda; also called final germline; FB with a back-mutation VL-A90S
# B4: TPP-31313 (antibody, IgG4, V domains shown)
# VH: B2 VH with E1Q, L5V, L11V, G16R, N35H, L37V, G49A, D54E, F63S
# VL: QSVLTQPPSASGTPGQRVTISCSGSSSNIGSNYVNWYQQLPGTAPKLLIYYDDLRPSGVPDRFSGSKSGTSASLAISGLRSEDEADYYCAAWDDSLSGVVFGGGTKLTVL
# notes: hIgG4 SPLE, lambda; also called FB; fundamental backbone
# B5: TPP-31327 (antibody, IgG4, V domains shown)
# VH: B2 VH with E1Q, L5V, L11V, G16R, N35H, L37V, G49A, D54E, F63S
# VL: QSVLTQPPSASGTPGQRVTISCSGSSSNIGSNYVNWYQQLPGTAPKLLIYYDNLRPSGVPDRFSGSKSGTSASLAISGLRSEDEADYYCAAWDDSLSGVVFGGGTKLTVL
# notes: hIgG4 SPLE, lambda; FB + 1, plus VL-D53N
# B6: TPP-31324 (antibody, IgG4, V domains shown)
# VH: B2 VH with E1Q, L5V, L11V, G16R, N35H, L37V, G49A, D54E, F63S
# VL: B2 VL with N31S, A33Y, S90A, N97S
# notes: hIgG4 SPLE, lambda; FB - 1, back mutation VL-R55L
# B7: TPP-31323 (antibody, IgG4, V domains shown)
# VH: B2 VH with E1Q, L5V, L11V, G16R, N35H, L37V, G49A, D54E, F63S
# VL: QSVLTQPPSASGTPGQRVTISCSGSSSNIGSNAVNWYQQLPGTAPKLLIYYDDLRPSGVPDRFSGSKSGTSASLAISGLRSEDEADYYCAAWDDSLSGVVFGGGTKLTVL
# notes: hIgG4 SPLE, lambda; FB - 1, back mutation VL-Y33A
# B8: TPP-31328 (antibody, IgG4, V domains shown)
# VH: B2 VH with E1Q, L5V, L11V, G16R, N35H, L37V, G49A, D54E, F59Y, F63S
# VL: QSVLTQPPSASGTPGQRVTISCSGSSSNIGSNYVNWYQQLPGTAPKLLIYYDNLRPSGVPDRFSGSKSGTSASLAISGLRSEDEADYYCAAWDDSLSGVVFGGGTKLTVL
# notes: hIgG4 SPLE, lambda; FB + 2, plus VH-F59Y & VL-D53N
# B9: TPP-31320 (antibody, IgG4, V domains shown)
# VH: B2 VH with E1Q, L5V, L11V, G16R, N35H, L37V, D54E, F63S
# VL: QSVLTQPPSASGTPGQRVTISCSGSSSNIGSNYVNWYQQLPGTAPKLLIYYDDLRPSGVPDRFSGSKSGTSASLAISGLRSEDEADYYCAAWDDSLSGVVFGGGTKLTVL
# notes: hIgG4 SPLE, lambda; FB - 1, back mutation VH-A49G
# B10: TPP-31314 (antibody, IgG4, V domains shown)
# VH: B2 VH with L5V, L11V, G16R, N35H, L37V, G49A, D54E, F63S
# VL: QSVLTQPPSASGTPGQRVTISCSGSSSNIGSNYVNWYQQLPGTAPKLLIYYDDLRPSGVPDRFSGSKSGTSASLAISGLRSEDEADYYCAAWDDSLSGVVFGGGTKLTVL
# notes: hIgG4 SPLE, lambda; FB - 1, back mutation VH-Q1E
# B11: TPP-31322 (antibody, IgG4, V domains shown)
# VH: B2 VH with E1Q, L5V, L11V, G16R, N35H, L37V, G49A, D54E, F63S
# VL: B2 VL with A33Y, L55R, S90A, N97S
# notes: hIgG4 SPLE, lambda; FB - 1, back mutation VL-S31N
# B12: TPP-31318 (antibody, IgG4, V domains shown)
# VH: B2 VH with E1Q, L5V, L11V, G16R, L37V, G49A, D54E, F63S
# VL: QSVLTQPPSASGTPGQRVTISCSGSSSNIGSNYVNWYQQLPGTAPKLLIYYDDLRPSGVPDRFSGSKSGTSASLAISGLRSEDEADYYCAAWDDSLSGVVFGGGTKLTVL
# notes: hIgG4 SPLE, lambda; FB - 1, back mutation VH-H35N
# B13: TPP-31319 (antibody, IgG4, V domains shown)
# VH: B2 VH with E1Q, L5V, L11V, G16R, N35H, G49A, D54E, F63S
# VL: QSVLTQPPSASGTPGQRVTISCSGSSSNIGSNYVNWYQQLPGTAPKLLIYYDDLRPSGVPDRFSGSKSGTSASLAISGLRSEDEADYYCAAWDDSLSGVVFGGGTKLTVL
# notes: hIgG4 SPLE, lambda; FB - 1, back mutation VH-V37L
# B14: TPP-31321 (antibody, IgG4, V domains shown)
# VH: B2 VH with E1Q, L5V, L11V, G16R, N35H, L37V, G49A, D54E
# VL: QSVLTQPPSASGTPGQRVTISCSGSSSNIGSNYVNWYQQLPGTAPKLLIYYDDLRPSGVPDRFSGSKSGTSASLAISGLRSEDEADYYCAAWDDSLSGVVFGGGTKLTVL
# notes: hIgG4 SPLE, lambda; FB - 1, back mutation VH-S63F
# B15: TPP-31316 (antibody, IgG4, V domains shown)
# VH: B2 VH with E1Q, L5V, G16R, N35H, L37V, G49A, D54E, F63S
# VL: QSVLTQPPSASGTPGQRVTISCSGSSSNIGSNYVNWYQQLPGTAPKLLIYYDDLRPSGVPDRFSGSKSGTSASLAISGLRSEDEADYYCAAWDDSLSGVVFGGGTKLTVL
# notes: hIgG4 SPLE, lambda; FB - 1, back mutation VH-V11L
# B16: TPP-31315 (antibody, IgG4, V domains shown)
# VH: B2 VH with E1Q, L11V, G16R, N35H, L37V, G49A, D54E, F63S
# VL: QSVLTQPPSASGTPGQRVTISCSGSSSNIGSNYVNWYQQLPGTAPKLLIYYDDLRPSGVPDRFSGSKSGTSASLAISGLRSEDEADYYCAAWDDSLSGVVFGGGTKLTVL
# notes: hIgG4 SPLE, lambda; FB - 1, back mutation VH-V5L
# B17: TPP-31317 (antibody, IgG4, V domains shown)
# VH: B2 VH with E1Q, L5V, L11V, N35H, L37V, G49A, D54E, F63S
# VL: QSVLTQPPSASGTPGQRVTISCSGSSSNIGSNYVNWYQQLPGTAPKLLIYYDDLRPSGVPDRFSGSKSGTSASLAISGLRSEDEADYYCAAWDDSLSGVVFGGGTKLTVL
# notes: hIgG4 SPLE, lambda; FB - 1, back mutation VH-R16G
# B18: TPP-31326 (antibody, IgG4, V domains shown)
# VH: B2 VH with E1Q, L5V, L11V, G16R, N35H, L37V, G49A, D54E, F59Y, F63S
# VL: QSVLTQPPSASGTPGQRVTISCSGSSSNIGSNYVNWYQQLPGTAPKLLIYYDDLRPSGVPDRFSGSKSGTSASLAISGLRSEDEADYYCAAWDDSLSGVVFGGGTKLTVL
# notes: hIgG4 SPLE, lambda; FB + 1, plus VH-F59Y
# Biological target: T1, rat IL-11 (rat, UniProt Q99MF5 22-199)
# T1 construct: Invigate, e.g. lot #C301019-19; also called rIL11
# T1 sequence: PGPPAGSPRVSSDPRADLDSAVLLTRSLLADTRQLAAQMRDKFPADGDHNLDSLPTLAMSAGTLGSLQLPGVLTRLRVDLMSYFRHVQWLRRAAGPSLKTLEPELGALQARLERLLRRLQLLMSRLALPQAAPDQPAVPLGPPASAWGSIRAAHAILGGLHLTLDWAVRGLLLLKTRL
# Test: SPR, antibody captured, IL-11 as analyte
row,Binder,Kd
1,B1,0.071 nM

# Biological target: T2, cynomolgus IL-11 (cynomolgus, UniProt P20808 22-199)
# T2 construct: Invigate, lot #C290621-19; also called cIL11; cynoL-11
# T2 sequence: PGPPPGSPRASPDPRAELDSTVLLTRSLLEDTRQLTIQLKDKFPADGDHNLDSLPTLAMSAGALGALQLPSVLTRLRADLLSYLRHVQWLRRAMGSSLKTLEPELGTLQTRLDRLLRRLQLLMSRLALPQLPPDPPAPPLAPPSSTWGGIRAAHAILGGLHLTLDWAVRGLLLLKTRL
# Test: SPR, antibody captured, IL-11 as analyte
row,Binder,Kd
1,B1,0.69 nM

# Biological target: T3, human IL-11 (human, UniProt P20809 22-199)
# T3 construct: Invigate, e.g. lot #C121021-19; biotinylated where coated in the ELISA; also called hIL-11; hIL11
# T3 sequence: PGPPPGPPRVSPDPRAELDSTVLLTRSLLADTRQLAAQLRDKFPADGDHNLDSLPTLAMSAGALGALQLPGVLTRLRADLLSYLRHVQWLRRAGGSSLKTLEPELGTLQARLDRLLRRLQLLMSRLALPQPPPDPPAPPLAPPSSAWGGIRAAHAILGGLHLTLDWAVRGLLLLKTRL
# Test: SPR, antibody captured, IL-11 as analyte
row,Binder,Kd
1,B1,0.36 nM

# Biological target: T4, murine IL-11 (mouse, UniProt P47873 22-199)
# T4 construct: Invigate, e.g. lot #C210819-09; biotinylated where coated in the ELISA; also called mIL-11; mIL11
# T4 sequence: T1 sequence with N50S, F84L, A94G, A137V, V138I
# Test: SPR, antibody captured, IL-11 as analyte
row,Binder,Kd
1,B1,0.17 nM

# Biological target: T5, human IL-11 (human, UniProt P20809 22-199)
# T5 construct: bought from Invigate; also called hIL-11; hIL11
# T5 sequence: T3 sequence
# Test: SPR, IgG captured via anti-human Fc, IL-11 as analyte
# Description: (§1) Antibody binding affinity to hIL-11 (Invigate, Germany, e.g., lot #C121021-19) and mIL-11 (Invigate, Germany, e.g., lot #C210819-09) was detected using Biacore 8K. Each antibody was captured on an anti-human IgG Fc antibody immobilized CM5 sensor chip (GE). hIL-11 and mIL-11 at different concentrations (0, 5, 15.82 and 50 nM) in 1×HBS-EP+ (pH 7.4) (GE healthcare) were injected over the sensor chip at a flow rate of 30 μL/min for an association phase of 120 s, followed by 200 s dissociation phase. The chip was then regenerated by 10 mM Glycine, pH 1.5 after each binding cycle.
# (§2) The sensorgrams of blank surface and buffer channel were subtracted from the test sensorgrams. The experimental data was fitted by 1:1 model using Langmiur analysis. Molecular weight of 19.3 kDa was used to calculate the molar concentration of human and mouse IL-11.
# (§3) 16 AB were produced as described in Example 21 and binding of purified AB to human and mouse IL-11 was analyzed using SPR as described in Example 21.
row,Binder,Kd
1,B2,5.3 nM
2,B3,0.59 nM
3,B4,0.89 nM
4,B5,1 nM
5,B6,0.79 nM
6,B7,2.4 nM
7,B8,1.8 nM
8,B9,0.95 nM
9,B10,0.87 nM
10,B11,0.81 nM
11,B12,0.89 nM
12,B13,0.83 nM
13,B14,0.85 nM
14,B15,0.85 nM
15,B16,0.87 nM
16,B17,0.83 nM
17,B18,1.7 nM

# Biological target: T6, murine IL-11 (mouse, UniProt P47873 22-199)
# T6 construct: bought from Invigate; also called mIL-11; mIL11
# T6 sequence: T1 sequence with N50S, F84L, A94G, A137V, V138I
# Test: as above
# Description: as §1, §2, §3
row,Binder,Kd
1,B2,9.3 nM
2,B3,0.35 nM
3,B4,0.64 nM
4,B5,0.85 nM
5,B6,0.5 nM
6,B7,1.7 nM
7,B8,1.8 nM
8,B9,0.56 nM
9,B10,0.59 nM
10,B11,0.69 nM
11,B12,0.3 nM
12,B13,0.59 nM
13,B14,0.67 nM
14,B15,0.62 nM
15,B16,0.65 nM
16,B17,0.58 nM
17,B18,1.2 nM

# Biological target: T5, human IL-11
# Test: cell-based or functional assay
row,Binder,"IC50, RGA"
1,B2,8.9 nM
2,B3,1.2 nM
3,B4,5.4 nM
4,B5,3.1 nM
5,B6,2.9 nM
6,B7,7.1 nM
7,B8,7.9 nM
8,B9,2.8 nM
9,B10,2.4 nM
10,B11,1.7 nM
11,B12,3.8 nM
12,B13,2.3 nM
13,B14,2.8 nM
14,B15,3.2 nM
15,B16,2.9 nM
16,B17,2.9 nM
17,B18,3.6 nM

# Biological target: T6, murine IL-11
# Test: cell-based or functional assay
row,Binder,"IC50, RGA"
1,B2,9.8 nM
2,B3,0.6 nM
3,B4,1.6 nM
4,B5,2.1 nM
5,B6,1 nM
6,B7,3.5 nM
7,B8,2.1 nM
8,B9,1.1 nM
9,B10,1.2 nM
10,B11,1.4 nM
11,B12,1.2 nM
12,B13,1.6 nM
13,B14,1 nM
14,B15,1.1 nM
15,B16,1.7 nM
16,B17,1.5 nM
17,B18,3.3 nM

# Biological target: T3, human IL-11
# Test: cell-based or functional assay
Binder,RGA Efficacy (%),RGA IC50
B1,84%,540 pM

# Biological target: T4, murine IL-11
# Test: cell-based or functional assay
row,Binder,RGA Efficacy (%)
1,B1,96.9%

# Biological target: T5, human IL-11
# Test: cell-based or functional assay
# Remark: another data set of the same source
Binder,"IC50, RGA 1","IC50, RGA 2"
B2,163 nM and 171 nM,80 nM

# Biological target: T6, murine IL-11
# Test: cell-based or functional assay
# Remark: another data set of the same source
Binder,"IC50, RGA 1","IC50, RGA 2"
B2,31 nM and 75 nM,20 nM
